Data: PMC3794980
pIC50: −log10 of the molar value.

What was measured:
Test in all cases: radioligand binding
[1] = molecular target: HLA-DR DRB1*0101 (human (endogenous in EBV transformed cell lines))
[2] = molecular target: HLA-DR DRB1*0301 (human (endogenous in EBV transformed cell lines))
[3] = molecular target: HLA-DR DRB1*0405 (human (endogenous in EBV transformed cell lines))
[4] = molecular target: HLA-DR DRB3*0101 (human (endogenous in EBV transformed cell lines))
[5] = molecular target: HLA-DR DRB5*0101 (human (endogenous in EBV transformed cell lines))
[6] = molecular target: HLA-DR DRB1*0802 (human (endogenous in EBV transformed cell lines))
[7] = molecular target: HLA-DR DRB4*0101 (human (endogenous in EBV transformed cell lines))
[8] = molecular target: HLA-DR DRB1*0701 (human (endogenous in EBV transformed cell lines))
[9] = molecular target: HLA-DR DRB1*1101 (human (endogenous in EBV transformed cell lines))
[10] = molecular target: HLA-DR DRB1*1501 (human (endogenous in EBV transformed cell lines))
[11] = molecular target: HLA-DR DRB1*0401 (human (endogenous in EBV transformed cell lines))
[12] = molecular target: HLA-DR DRB1*0901 (human (endogenous in EBV transformed cell lines))
[13] = molecular target: HLA-DR DRB1*1302 (human (endogenous in EBV transformed cell lines))

DENV3 NS5 489-505 (peptide)
pIC50 [1]: 6.64 | pIC50 [2]: 6.93 | pIC50 [3]: 6.63 | pIC50 [4]: 6.41 | pIC50 [5]: 6.03

DENV3 NS5 306-322 (peptide)
pIC50 [6]: 7.15

DENV3 NS1 121-135 (peptide)
pIC50 [1]: 6.45 | pIC50 [6]: 7.34 | pIC50 [7]: 6.42

DENV3 NS5 558-574 (peptide)
pIC50 [2]: 6.23 | pIC50 [3]: 6.18 | pIC50 [8]: 6.87 | pIC50 [9]: 6.76 | pIC50 [10]: 6.40 | pIC50 [5]: 6.41

DENV3 NS3 605-619 (peptide)
pIC50 [6]: 7.43 | pIC50 [10]: 7.55 | pIC50 [5]: 7.71

DENV3 NS5 29-45 (peptide)
pIC50 [9]: 6.54

DENV3 Envelope 306-320 (peptide)
pIC50 [11]: 6.28

DENV3 Envelope 231-245 (peptide)
pIC50 [1]: 8.29 | pIC50 [12]: 7.32 | pIC50 [10]: 8.28 | pIC50 [5]: 7.61

DENV3 NS1 313-327 (peptide)
pIC50 [7]: 6.30

DENV3 NS5 582-598 (peptide)
pIC50 [9]: 6.98

DENV3 NS3 389-403 (peptide)
pIC50 [9]: 6.17

DENV3 NS1 241-255 (peptide)
pIC50 [1]: 7.29

DENV3 Envelope 236-250 (peptide)
pIC50 [1]: 6.47 | pIC50 [8]: 6.25 | pIC50 [6]: 6.38 | pIC50 [5]: 7.53

DENV3 NS3 357-371 (peptide)
pIC50 [1]: 7.80 | pIC50 [2]: 6.36 | pIC50 [8]: 7.53 | pIC50 [12]: 7.00 | pIC50 [10]: 7.80 | pIC50 [4]: 6.15 | pIC50 [7]: 6.12 | pIC50 [5]: 6.56

DENV3 NS3 57-71 (peptide)
pIC50 [1]: 6.05 | pIC50 [10]: 6.71

DENV3 NS3 417-431 (peptide)
pIC50 [4]: 6.20

DENV3 NS5 670-686 (peptide)
pIC50 [7]: 6.01 | pIC50 [5]: 6.32

DENV3 NS3 77-91 (peptide)
pIC50 [12]: 6.57 | pIC50 [10]: 7.28 | pIC50 [7]: 6.15

DENV3 NS3 121-135 (peptide)
pIC50 [2]: 8.06

DENV3 NS3 137-151 (peptide)
pIC50 [1]: 6.07 | pIC50 [10]: 6.30

DENV3 NS3 429-443 (peptide)
pIC50 [4]: 8.24

DENV3 Envelope 126-140 (peptide)
pIC50 [1]: 6.01 | pIC50 [3]: 7.05 | pIC50 [6]: 7.43 | pIC50 [10]: 7.67 | pIC50 [7]: 7.23

DENV3 NS3 241-255 (peptide)
pIC50 [8]: 6.28 | pIC50 [5]: 7.78

DENV3 Envelope 281-295 (peptide)
pIC50 [2]: 7.78 | pIC50 [10]: 6.19 | pIC50 [4]: 7.51

DENV3 NS1 233-247 (peptide)
pIC50 [2]: 7.14 | pIC50 [11]: 7.06 | pIC50 [4]: 6.80

DENV3 NS5 336-352 (peptide)
pIC50 [7]: 6.13

DENV3 Envelope 346-360 (peptide)
pIC50 [1]: 8.35 | pIC50 [11]: 6.46 | pIC50 [8]: 7.17 | pIC50 [6]: 6.54 | pIC50 [13]: 7.84 | pIC50 [10]: 6.48

DENV3 NS1 33-47 (peptide)
pIC50 [4]: 7.65 | pIC50 [7]: 6.04

DENV3 NS1 29-43 (peptide)
pIC50 [4]: 7.97 | pIC50 [5]: 7.64

DENV3 NS5 193-209 (peptide)
pIC50 [1]: 7.06 | pIC50 [8]: 6.84 | pIC50 [13]: 7.82 | pIC50 [10]: 6.70

DENV3 Envelope 301-315 (peptide)
pIC50 [11]: 7.58 | pIC50 [6]: 7.23

DENV3 NS3 105-119 (peptide)
pIC50 [1]: 7.31 | pIC50 [6]: 6.76 | pIC50 [12]: 6.39 | pIC50 [7]: 6.07 | pIC50 [5]: 6.75

DENV3 Envelope 171-185 (peptide)
pIC50 [1]: 7.20 | pIC50 [6]: 7.04 | pIC50 [7]: 6.10

DENV3 NS3 125-139 (peptide)
pIC50 [2]: 7.33

DENV3 NS3 345-359 (peptide)
pIC50 [4]: 7.50

DENV3 NS5 301-316 (peptide)
pIC50 [4]: 6.27

DENV3 NS5 447-463 (peptide)
pIC50 [5]: 7.60

DENV3 Envelope 366-380 (peptide)
pIC50 [8]: 6.26 | pIC50 [6]: 6.12

DENV3 NS1 229-243 (peptide)
pIC50 [2]: 6.77 | pIC50 [11]: 6.75 | pIC50 [4]: 6.13

DENV3 NS3 409-423 (peptide)
pIC50 [2]: 6.33 | pIC50 [4]: 6.77 | pIC50 [5]: 7.30

DENV3 NS5 495-511 (peptide)
pIC50 [11]: 7.83 | pIC50 [8]: 6.72 | pIC50 [12]: 6.35 | pIC50 [5]: 6.14

DENV3 NS1 193-207 (peptide)
pIC50 [4]: 7.61 | pIC50 [7]: 6.75

DENV3 NS3 313-327 (peptide)
pIC50 [6]: 7.40

DENV3 Envelope 51-65 (peptide)
pIC50 [1]: 7.09 | pIC50 [6]: 6.89 | pIC50 [9]: 7.39 | pIC50 [10]: 6.01 | pIC50 [7]: 6.81

DENV3 NS3 393-407 (peptide)
pIC50 [8]: 6.34

DENV3 NS5 45-61 (peptide)
pIC50 [8]: 6.34 | pIC50 [9]: 7.08 | pIC50 [7]: 8.07 | pIC50 [5]: 6.35

DENV3 Envelope 316-330 (peptide)
pIC50 [9]: 6.82 | pIC50 [10]: 6.44
